{"source": "the Human Domainome abundance scans (Beltran et al. 2025)", "parents": {"B1": {"name": "Receptor-interacting serine/threonine-protein kinase 2, residues 438 to 518; numbered along this chain, O43353 (parent)", "chain": "QWIQSKREDIVNQMTEACLNQSLDALLSRDLIMKEDYELVSTKPTRTSKVRQLLDTTDIQGEEFAKVIVQKLKDNKQMGLQ"}}, "note": "± gives the uncertainty stated by the source.", "data": [{"variants_of": "B1", "test": "abundance fitness (aPCA) (normalised: wild type 0, dead -1); higher = more abundant; growth selection in yeast, the domain comes from the species named", "details": "Homo sapiens", "values": [{"variant": "V11W", "abundance fitness": "-1.03 ± 0.21"}, {"variant": "V11H", "abundance fitness": "-0.656 ± 0.29"}, {"variant": "V11I", "abundance fitness": "0.091 ± 0.12"}, {"variant": "V11G", "abundance fitness": "-0.553 ± 0.063"}, {"variant": "V11E", "abundance fitness": "-0.376 ± 0.11"}, {"variant": "L26V", "abundance fitness": "-0.649 ± 0.069"}, {"variant": "L26F", "abundance fitness": "-1.03 ± 0.25"}, {"variant": "L26K", "abundance fitness": "-0.374 ± 0.15"}, {"variant": "L19M", "abundance fitness": "-0.306 ± 0.12"}, {"variant": "K71C", "abundance fitness": "-0.02 ± 0.11"}, {"variant": "K71S", "abundance fitness": "0.028 ± 0.054"}, {"variant": "K71F", "abundance fitness": "-0.249 ± 0.15"}, {"variant": "K71Y", "abundance fitness": "-0.204 ± 0.14"}, {"variant": "I10Q", "abundance fitness": "-0.541 ± 0.16"}, {"variant": "I10H", "abundance fitness": "-0.862 ± 0.23"}, {"variant": "M33I", "abundance fitness": "-0.075 ± 0.12"}, {"variant": "M33L", "abundance fitness": "0.059 ± 0.061"}, {"variant": "M33T", "abundance fitness": "0.247 ± 0.095"}, {"variant": "D24H", "abundance fitness": "-0.574 ± 0.16"}, {"variant": "D24E", "abundance fitness": "0.034 ± 0.33"}, {"variant": "D24Y", "abundance fitness": "-0.221 ± 0.22"}, {"variant": "Q13L", "abundance fitness": "-0.541 ± 0.16"}, {"variant": "Q13F", "abundance fitness": "-0.314 ± 0.45"}, {"variant": "Q13M", "abundance fitness": "-0.369 ± 0.48"}, {"variant": "Q13A", "abundance fitness": "0.032 ± 0.19"}, {"variant": "K73A", "abundance fitness": "-0.119 ± 0.062"}, {"variant": "K73R", "abundance fitness": "0.011 ± 0.051"}, {"variant": "K73T", "abundance fitness": "-0.01 ± 0.075"}, {"variant": "K73M", "abundance fitness": "-0.107 ± 0.093"}, {"variant": "Q1R", "abundance fitness": "-0.389 ± 0.47"}, {"variant": "Q1H", "abundance fitness": "-0.398 ± 0.4"}, {"variant": "Y37S", "abundance fitness": "-0.518 ± 0.045"}, {"variant": "Y37W", "abundance fitness": "-0.232 ± 0.066"}, {"variant": "Y37D", "abundance fitness": "-0.471 ± 0.17"}, {"variant": "R29T", "abundance fitness": "-0.438 ± 0.11"}, {"variant": "R29N", "abundance fitness": "-0.044 ± 0.21"}, {"variant": "R29W", "abundance fitness": "-0.575 ± 0.16"}, {"variant": "D58I", "abundance fitness": "-0.007 ± 0.13"}, {"variant": "D58R", "abundance fitness": "-0.154 ± 0.058"}, {"variant": "D58P", "abundance fitness": "0.172 ± 0.064"}, {"variant": "D58M", "abundance fitness": "-0.033 ± 0.09"}, {"variant": "Q70S", "abundance fitness": "-0.174 ± 0.066"}, {"variant": "Q70M", "abundance fitness": "-0.436 ± 0.15"}, {"variant": "Q70G", "abundance fitness": "-0.144 ± 0.065"}, {"variant": "Q70L", "abundance fitness": "-0.687 ± 0.11"}, {"variant": "P44V", "abundance fitness": "-0.214 ± 0.071"}, {"variant": "P44H", "abundance fitness": "-0.761 ± 0.2"}, {"variant": "P44Y", "abundance fitness": "-0.2 ± 0.26"}, {"variant": "P44Q", "abundance fitness": "-0.169 ± 0.11"}, {"variant": "P44G", "abundance fitness": "-0.314 ± 0.064"}, {"variant": "T42H", "abundance fitness": "-0.156 ± 0.088"}, {"variant": "T42D", "abundance fitness": "-0.318 ± 0.087"}, {"variant": "K34H", "abundance fitness": "-0.528 ± 0.17"}, {"variant": "K34S", "abundance fitness": "-0.23 ± 0.065"}, {"variant": "K34F", "abundance fitness": "-0.191 ± 0.17"}, {"variant": "K34W", "abundance fitness": "-0.243 ± 0.092"}, {"variant": "K34C", "abundance fitness": "-0.199 ± 0.22"}, {"variant": "T15Y", "abundance fitness": "-0.946 ± 0.31"}, {"variant": "T15W", "abundance fitness": "-1.05 ± 0.21"}, {"variant": "T15C", "abundance fitness": "-0.877 ± 0.16"}, {"variant": "R51M", "abundance fitness": "-0.354 ± 0.16"}, {"variant": "R51T", "abundance fitness": "-0.255 ± 0.08"}, {"variant": "R51G", "abundance fitness": "-0.407 ± 0.055"}, {"variant": "R51H", "abundance fitness": "-0.518 ± 0.11"}, {"variant": "L31A", "abundance fitness": "-0.615 ± 0.089"}, {"variant": "L31M", "abundance fitness": "-0.204 ± 0.13"}, {"variant": "L31G", "abundance fitness": "-0.798 ± 0.087"}, {"variant": "Q60V", "abundance fitness": "-0.267 ± 0.056"}, {"variant": "L54P", "abundance fitness": "-0.553 ± 0.099"}, {"variant": "L54R", "abundance fitness": "-0.475 ± 0.048"}, {"variant": "L54D", "abundance fitness": "-0.452 ± 0.2"}, {"variant": "L54A", "abundance fitness": "-0.345 ± 0.097"}, {"variant": "G61V", "abundance fitness": "-0.253 ± 0.09"}, {"variant": "G61E", "abundance fitness": "-0.125 ± 0.15"}, {"variant": "G61P", "abundance fitness": "-0.596 ± 0.086"}, {"variant": "G61I", "abundance fitness": "-0.935 ± 0.32"}, {"variant": "G61Y", "abundance fitness": "-0.279 ± 0.14"}, {"variant": "G61F", "abundance fitness": "-0.604 ± 0.29"}, {"variant": "G61C", "abundance fitness": "-0.083 ± 0.078"}, {"variant": "V69Y", "abundance fitness": "-0.23 ± 0.17"}, {"variant": "V69A", "abundance fitness": "-0.384 ± 0.097"}, {"variant": "V69Q", "abundance fitness": "-0.306 ± 0.085"}, {"variant": "E8I", "abundance fitness": "-0.768 ± 0.45"}]}]}
